Patent US20240360228A1 (BIOLEGEND, published 2024)
Values belong to the binder of their own block, whether it stands above or below them.

Key:
human CCR8 [1] = target: T1, human CCR8 (human, UniProt P51685 1-355); assay: flow blocking, PBMC CCR8+CD3+; competitor PE-AB13
T1 construct: Native CCR8 on human PBMC (CCR8+ CD3+ or CCR8+ CD4+ lymphocytes); also called chemokine (C-C motif) receptor 8
Method: (§1) For blocking studies, 100 μL of the cell suspension were incubated with 10 μg purified isotype control, AB1, AB2, AB3, AB4, AB5, AB8, AB9, AB10, AB11, AB12, AB13, AB14, AB15, and Commercial ABI antibodies, or isotype control, as blocking agents.
(§2) After incubation with the blocking agent, the cells were incubated with 0.25 μg of the indicated PE-conjugated antibody plus anti-human CD4 APC or anti-human CD3 for another 15 minutes in the dark and then washed 2 times with Cell Staining Buffer, and acquired in a FACSCanto II flow cytometer (BD Biosciences); the data was analyzed using FCS Express (De Novo Software); MFI correspond to the CCR8+ CD4+ lymphocytes or CCR8+ CD3+ lymphocytes.
(§3) Percentage original MFI was calculated by dividing the MFI of samples blocked with AB1, AB2, AB3, AB4, AB5, AB6, AB7, AB8, AB9, AB10, AB11, AB12, AB13, AB14, AB15, and Commercial ABI antibodies, by the MFI of samples blocked with the corresponding isotype control. This value was subtracted from 100 to get a blocking percentage. The formula is shown below: […]

human CCR8 [2] = target: T1, human CCR8; assay: flow blocking, PBMC CCR8+CD4+; competitor PE-AB15
Method: as §1, §2, §3

human CCR8 [3] = target: T1, human CCR8; assay: flow blocking, PBMC CCR8+CD4+; competitor PE-AB13
Method: as §1, §2

human CCR8 [4] = target: T1, human CCR8; assay: flow blocking, PBMC CCR8+CD4+; competitor PE-AB11
Method: as §1, §2, §3

human CCR8 [5] = target: T1, human CCR8; assay: flow blocking, PBMC CCR8+CD3+; competitor PE-AB7
Method: as §1, §2, §3

human CCR8 [6] = target: T1, human CCR8; assay: flow blocking, PBMC CCR8+CD4+; competitor PE-AB2
Method: as §1, §2, §3

human CCR8 [7] = target: T1, human CCR8; assay: flow blocking, PBMC CCR8+CD3+; competitor PE-AB11
Method: as §1, §2, §3

human CCR8 [8] = target: T1, human CCR8; assay: flow blocking, PBMC CCR8+CD4+; competitor PE-AB12
Method: as §1, §2, §3

human CCR8 [9] = target: T1, human CCR8; assay: flow blocking, PBMC CCR8+CD3+; competitor PE-AB15
Method: as §1, §2, §3

human CCR8 [10] = target: T1, human CCR8; assay: flow blocking, PBMC CCR8+CD4+; competitor PE-AB4
Method: as §1, §2, §3

human CCR8 [11] = target: T1, human CCR8; assay: flow blocking, PBMC CCR8+CD3+; competitor PE-AB12
Method: as §1, §2, §3

human CCR8 [12] = target: T1, human CCR8; assay: flow blocking, PBMC CCR8+CD4+; competitor PE-AB10
Method: as §1, §2, §3

human CCR8 [13] = target: T1, human CCR8; assay: flow blocking, PBMC CCR8+CD3+; competitor PE-L263G8
Method: as §1, §2, §3

human CCR8 [14] = target: T1, human CCR8; assay: flow blocking, PBMC CCR8+CD3+; competitor PE-433H
Method: as §1, §2, §3

human CCR8 [15] = target: T1, human CCR8; assay: flow blocking, PBMC CCR8+CD3+; competitor PE-AB5
Method: as §1, §2, §3

human CCR8 [16] = target: T1, human CCR8; assay: flow blocking, PBMC CCR8+CD4+; competitor PE-AB6
Method: as §1, §2

human CCR8 [17] = target: T1, human CCR8; assay: flow blocking, PBMC CCR8+CD4+; competitor PE-AB3
Method: as §1, §2, §3

human CCR8 [18] = target: T1, human CCR8; assay: flow blocking, PBMC CCR8+CD4+; competitor PE-433H
Method: as §1, §2

human CCR8 [19] = target: T1, human CCR8; assay: flow blocking, PBMC CCR8+CD4+; competitor PE-AB1
Method: as §1, §2, §3

human CCR8 [20] = target: T1, human CCR8; assay: flow blocking, PBMC CCR8+CD4+; competitor PE-AB5
Method: as §1, §2, §3

human CCR8 [21] = target: T1, human CCR8; assay: flow blocking, PBMC CCR8+CD3+; competitor PE-AB10
Method: as §1, §2, §3

human CCR8 [22] = target: T1, human CCR8; assay: flow blocking, PBMC CCR8+CD3+; competitor PE-AB8
Method: as §1, §2, §3

human CCR8 [23] = target: T1, human CCR8; assay: flow blocking, PBMC CCR8+CD4+; competitor PE-AB14
Method: as §1, §2

human CCR8 [24] = target: T1, human CCR8; assay: flow blocking, PBMC CCR8+CD3+; competitor PE-AB6
Method: as §1, §2, §3

human CCR8 [25] = target: T1, human CCR8; assay: flow blocking, PBMC CCR8+CD3+; competitor PE-AB14
Method: as §1, §2, §3

T1 sequence (P51685 whole entry): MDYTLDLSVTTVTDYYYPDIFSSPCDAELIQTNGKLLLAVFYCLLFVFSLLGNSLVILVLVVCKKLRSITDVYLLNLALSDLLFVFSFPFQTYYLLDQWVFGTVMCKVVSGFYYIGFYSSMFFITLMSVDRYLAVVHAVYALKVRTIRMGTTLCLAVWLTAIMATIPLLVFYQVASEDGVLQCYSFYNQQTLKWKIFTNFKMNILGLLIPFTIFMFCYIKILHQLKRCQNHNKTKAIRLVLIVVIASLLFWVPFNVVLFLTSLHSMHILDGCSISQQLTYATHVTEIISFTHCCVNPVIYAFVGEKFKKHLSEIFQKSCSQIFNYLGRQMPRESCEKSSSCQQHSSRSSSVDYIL

% Blocking (human CCR8 [1]): 43.6%
MFI (human CCR8 [1]): 499
% Blocking (human CCR8 [2]): 88.4%
% Positive cells (human CCR8 [2]): 0.15%
% Blocking (human CCR8 [3]): 97.5%
% Positive cells (human CCR8 [3]): 0.05%
% Blocking (human CCR8 [4]): 98.5%
% Positive cells (human CCR8 [4]): 0.03%
% Blocking (human CCR8 [5]): 52.1%
MFI (human CCR8 [5]): 559
% Blocking (human CCR8 [6]): -40.2%
% Positive cells (human CCR8 [6]): 2.3%
% Blocking (human CCR8 [7]): 55.2%
MFI (human CCR8 [7]): 416
% Blocking (human CCR8 [8]): 98.9%
% Positive cells (human CCR8 [8]): 0.02%
% Blocking (human CCR8 [9]): 43.3%
MFI (human CCR8 [9]): 487
% Blocking (human CCR8 [10]): -38.8%
% Positive cells (human CCR8 [10]): 2.47%
% Blocking (human CCR8 [11]): 47.6%
MFI (human CCR8 [11]): 536
% Blocking (human CCR8 [12]): 93.2%
% Positive cells (human CCR8 [12]): 0.1%
% Blocking (human CCR8 [13]): 10.2%
MFI (human CCR8 [13]): 605
% Blocking (human CCR8 [14]): 32.1%
MFI (human CCR8 [14]): 602
% Blocking (human CCR8 [15]): -8.37%
MFI (human CCR8 [15]): 1070
% Blocking (human CCR8 [16]): -7.92%
% Positive cells (human CCR8 [16]): 2.18%
% Blocking (human CCR8 [17]): -50.9%
% Positive cells (human CCR8 [17]): 2.58%
% Blocking (human CCR8 [18]): 28.4%
% Positive cells (human CCR8 [18]): 1.26%
% Blocking (human CCR8 [19]): -47.1%
% Positive cells (human CCR8 [19]): 2.28%
% Blocking (human CCR8 [20]): -17.8%
% Positive cells (human CCR8 [20]): 2.38%
% Blocking (human CCR8 [21]): 30.7%
MFI (human CCR8 [21]): 552
% Blocking (human CCR8 [22]): 51.6%
MFI (human CCR8 [22]): 575
% Blocking (human CCR8 [23]): 89.2%
% Positive cells (human CCR8 [23]): 0.14%
% Blocking (human CCR8 [24]): -27%
MFI (human CCR8 [24]): 1170
% Blocking (human CCR8 [25]): 38.9%
MFI (human CCR8 [25]): 528
B1: AB10 (antibody, V domains shown)
VH: EVQLVETGGGLVQPKGSLKLSCAVSGFTFKTNAMNWVRQAPGKGLEWVARIRSKSNKYATYYADSVKDRFTISRDDSQSMLYLQMNNLKTEDTAMYYCVRGSEMGYYYAMDYWGQGTSVTVSS
VL: DIVMTQAAPSVPVTPGESVSISCRSSKSLLHSNGNTYLYWFLQRPGQSPQLLIYRMSNLASGVPDRFSGSGSGTAFTLRISRVEAEDVGVYYCMQHLEYPFTFGGGTKLEIK
notes: Hybridoma monoclonal; also called antibody 10; clone 10

% Blocking (human CCR8 [1]): 24.6%
MFI (human CCR8 [1]): 668
% Blocking (human CCR8 [2]): -34.9%
% Positive cells (human CCR8 [2]): 1.74%
% Blocking (human CCR8 [3]): 95.5%
% Positive cells (human CCR8 [3]): 0.09%
% Blocking (human CCR8 [4]): 98%
% Positive cells (human CCR8 [4]): 0.04%
% Blocking (human CCR8 [5]): 46.1%
MFI (human CCR8 [5]): 630
% Blocking (human CCR8 [6]): -33.5%
% Positive cells (human CCR8 [6]): 2.19%
% Blocking (human CCR8 [7]): 5.33%
MFI (human CCR8 [7]): 878
% Blocking (human CCR8 [8]): 99.4%
% Positive cells (human CCR8 [8]): 0.01%
% Blocking (human CCR8 [9]): 30%
MFI (human CCR8 [9]): 601
% Blocking (human CCR8 [10]): -18.5%
% Positive cells (human CCR8 [10]): 2.11%
% Blocking (human CCR8 [11]): 21.8%
MFI (human CCR8 [11]): 800
% Blocking (human CCR8 [12]): 96%
% Positive cells (human CCR8 [12]): 0.06%
% Blocking (human CCR8 [13]): 11.8%
MFI (human CCR8 [13]): 594
% Blocking (human CCR8 [14]): 8.18%
MFI (human CCR8 [14]): 814
% Blocking (human CCR8 [15]): -14.7%
MFI (human CCR8 [15]): 1130
% Blocking (human CCR8 [16]): 1.49%
% Positive cells (human CCR8 [16]): 1.99%
% Blocking (human CCR8 [17]): -19.3%
% Positive cells (human CCR8 [17]): 2.04%
% Blocking (human CCR8 [18]): 34.7%
% Positive cells (human CCR8 [18]): 1.15%
% Blocking (human CCR8 [19]): -36.8%
% Positive cells (human CCR8 [19]): 2.12%
% Blocking (human CCR8 [20]): -7.92%
% Positive cells (human CCR8 [20]): 2.18%
% Blocking (human CCR8 [21]): 8.91%
MFI (human CCR8 [21]): 726
% Blocking (human CCR8 [22]): 44.1%
MFI (human CCR8 [22]): 664
% Blocking (human CCR8 [23]): 99.2%
% Positive cells (human CCR8 [23]): 0.01%
% Blocking (human CCR8 [24]): -17.2%
MFI (human CCR8 [24]): 1080
% Blocking (human CCR8 [25]): 30.8%
MFI (human CCR8 [25]): 598
B2: AB13 (antibody, V domains shown)
VH: EVQLVETGGGLVQPKGSLKLSCAASGFTFNAYAMNWVRQAPGKGLEWVARIRTKSNNYATYYADSVKDRFTISRDDSQTMLYLQMNNLKTEDTAMYYCVRDRATVTTGRAMDYWGQGTSVTVSS
VL: DIVMTQAAPSLPVTPGESVSISCRSSKSLLHSNGNTYLYWFLQRAGQSPQLLIYRMSNLASGVPDRFSGSGSGTAFTLRISRVEAEDVGVYYCMQHLEYPFTFGSGTKLEIK
notes: Hybridoma monoclonal; also called antibody 13; clone 13

% Blocking (human CCR8 [1]): 34.6%
MFI (human CCR8 [1]): 579
% Blocking (human CCR8 [2]): 93.8%
% Positive cells (human CCR8 [2]): 0.08%
% Blocking (human CCR8 [3]): 96.5%
% Positive cells (human CCR8 [3]): 0.07%
% Blocking (human CCR8 [4]): 96.9%
% Positive cells (human CCR8 [4]): 0.06%
% Blocking (human CCR8 [5]): 13.1%
MFI (human CCR8 [5]): 1020
% Blocking (human CCR8 [6]): -22.6%
% Positive cells (human CCR8 [6]): 2.01%
% Blocking (human CCR8 [7]): 42.7%
MFI (human CCR8 [7]): 532
% Blocking (human CCR8 [8]): 98.3%
% Positive cells (human CCR8 [8]): 0.03%
% Blocking (human CCR8 [9]): 52%
MFI (human CCR8 [9]): 412
% Blocking (human CCR8 [10]): -27%
% Positive cells (human CCR8 [10]): 2.26%
% Blocking (human CCR8 [11]): 48%
MFI (human CCR8 [11]): 531
% Blocking (human CCR8 [12]): -2.7%
% Positive cells (human CCR8 [12]): 1.52%
% Blocking (human CCR8 [13]): 36.6%
MFI (human CCR8 [13]): 427
% Blocking (human CCR8 [14]): 43.3%
MFI (human CCR8 [14]): 503
% Blocking (human CCR8 [15]): -2.94%
MFI (human CCR8 [15]): 1020
% Blocking (human CCR8 [16]): -5.45%
% Positive cells (human CCR8 [16]): 2.13%
% Blocking (human CCR8 [17]): -26.3%
% Positive cells (human CCR8 [17]): 2.16%
% Blocking (human CCR8 [18]): 38.6%
% Positive cells (human CCR8 [18]): 1.08%
% Blocking (human CCR8 [19]): -31.6%
% Positive cells (human CCR8 [19]): 2.04%
% Blocking (human CCR8 [20]): -27.7%
% Positive cells (human CCR8 [20]): 2.58%
% Blocking (human CCR8 [21]): 34.4%
MFI (human CCR8 [21]): 522
% Blocking (human CCR8 [22]): 17.8%
MFI (human CCR8 [22]): 977
% Blocking (human CCR8 [23]): 99.2%
% Positive cells (human CCR8 [23]): 0.01%
% Blocking (human CCR8 [24]): -8.93%
MFI (human CCR8 [24]): 1010
% Blocking (human CCR8 [25]): 41.4%
MFI (human CCR8 [25]): 506
B3: AB11 (antibody, V domains shown)
VH: EVQLVESGGGLVQPKGSLKLSCAASGFAFNTYAMNWVRQAPGKGLEWIARLRSKSNFYATYYADSVKDRFTISRDDSQSMLYLQMNNLKTEDTAVYYCVRGRELGPSYAMDYWGQGTSVTVSS
VL: DIVMTQAAPSVPVTPGESVSISCRSSKSLLHSNGNTYLYWFLQRPGQSPQLLIYRMSNLASGVPDRFSGSGSGTAFTLRISRVEAEDVGVYYCMQHLEYPYTFGGGTKLEIK
notes: Hybridoma monoclonal; also called antibody 11; clone 11
